Assay results published in the DeepSol protein solubility set.

test: soluble on expression in E. coli; label from the status in PepcDB or PDB records

Sequence | soluble on expression in E. coli
MGSDKIHHHHHHAPLTFDETAFREDVKTLASDAFGGRAPLSDGEQKTLDYLTHAFKSMGLKGAFNGEYLQAVPMAKITADQSMVLKVGELSFTSGEDFTARTQRVVPKVELSGSDMVFVGYGINAPEYGWNDYAGIDVRGKTVVLLVNDPGFATQDPKVFKGNAMTYYGRWTYKYEEAARQGAEAVFIVHEDAPAAYGWGVVKNSNTNTKFTLVDGNNNQSQVGVMGWLQYAAAKQILAASGQDIEALKAAAKAPGFKAVPLTVQADLTLSNHIERAESHNVAAILPGNKNADEAVVMHAHWDHLGQIEEEGKTIILNGAVDNATGVAGVLALARHYAALPEAEKPARSMIFSAFTAEETGLIGAQYFAENPPLPTSKLVAFLNIDGMNVGEGVDYILRYGEGVSELETMLSDAAKAQNRQVKADPRPQNGLMFRSDHFALAQQGVPGLLFMSLGDTDPDYIAHKYHKGADDYSPDWQLGGVKQDLKLIEQILSRLANGSEWPKWLEESDFKARRAKDGR | not soluble
MGSDKIHHHHHHAQNGNVLGQVIRLPKSKGNIYQLLGLVTERSGYLFIYDSKIIDNEQTTSIKGGDYTIQEAIYAITGNKNLAIRAIENHLLLYLPESPSAPKSASVTPDSIQTYFSIEGSLQDQYTHEPIAFGSVGIGEAAIGTITNQNGEFRLKLPDSLRLSKVRFSHIGYLPQEIDSRELIDKHTVLSLEPKVISIQEVIVRLTNPKRLLQEMLDKRRSNYSQHPIYLTTFYREGVERKKGLVGLTEAVFKVYKASYHSNALADQVKLLKMRRISNEQEKDTLITKMKSGIYSCLVLDLMKQLPEFLDPSPDSPYTYAHTDITVVDDRLANVISFEQRKSINEPLYRGQIYIDMENNALLRVDFEVNPQYIEQAAGMFVERKSRNLRITPQKVAYTVSYKQWNGTYYINHIRGDLHFKIKKRRQLFNTNILHTWFEMVTCKIDTANVNRFSRIESLPTRTVFSDTHFNYDEGFWGDFNVILPEDKLNEAISRITSKIEETNY | not soluble
MGSDKIHHHHHHAQTDSMLIRPTVDKRVELLSIIFRLTGNPEYNRNDFKLYTDRIESHFSPYKNHELISFARSLVKTDGVSYDAVMSMAINLDNQFNLPADYGSLDSRWNRNQVGPFIKLLKKFVKDSRFDAFYHSNENLYQEAVSRFMPIYKSIDTQWYNDFYGQKSNDRFHIILSMSNGPGNYGPSVTDKENVHNVFSVMGAWVTDSVGMVVYPPELILPILIHEFNHSFINFDPEMFRTSGEQIYAAVGEQMARQAYGQWSIVLTEAMVRAAVIKYMKDHNFPAVEITKETVIQKTRGFVWISKLVDELEKYSSDRTTYPTLNSYMPRLAEAYTGFAQYTANYDSIRPKVVSIDEFTNGDTTVRSDIKTITVHFDRPLVGRGHSFNYGHLGMEAMPKIINVNYANDNRTVIIGVELLPGKEYGITLLGLSFRTPEGDAIKPYEISFKTAE | not soluble
MGSDKIHHHHHHAVFVAVGIRMITSGDGRTNRYDVEAGNNTYDNAVIENSKISEKNKIQNNQSMLDDIMNSTQYPKQLKDLALKNEEALEFVFDYPAEHVKEHTIDLTEEASMDSVPLFVQWDKRWGYEKYSGNFFAASGCGPTTLSMVVVYLTHNREASPIAVAKYSKEAGYSVDGSGSSWTLISEGCMHYGVKAKAVALDESRMKAELDEGHPIVVNVGPGDFTDTGHFMVITGYDDEGFSINDPNSIEKSGKRWLFKNISSQIRAVWSMYV | not soluble
MGSDKIHHHHHHAVQNTITIRSRGAKVYNKNGNAIVDARDKNIVLKEGTVAEYYGEPKYMVWRGHKKASFYNIGGNRYLLGYNVASLNDKGTLSIYRDSYIYDKTGKRVEKNTVLRKGTAINYVDKLNEKIETEKNLPKFYYYNMAIQRTHEGMLWVKYSVLSVKYHIINGKEYYKIANNKYIRATNIGYINGRQLFTTEATVTMGKATTKDGKYYARNMNGKITKTILPYKPGQKVVVDRSFQHSSKSFWRIKGTNYYIFGPDIKKFPIQALRR | not soluble
MGSDKIHHHHHHCDDNDGYSLGDIAVDWATVRVVGGDTYSLNADRWGTLWPAATAIPFYKPIDGQRVITYFNPLYDNYEGYDHAVKVEHNYNVLTKQVEDLTAENESEFGNDPVWVNKDMMWIGGGYLNVIFRQNLPVKEKHLVSLVRDMRATAAEGEDDGYIHLELRYKTYDDVTARQANGAVSFNLNSLDLTGKKGIKVKLNSVKDGETEVVFNLKGQSMPEEAKQVTLSDEVQIK | not soluble
MGSDKIHHHHHHDDPFYAPVYPEAPPTKIAATGSIYQDSQAASLYSDIRAHKVGDIITIVLKEATQAKKSAGNQIKKGSDMTLDPVYAGGSNLSLGGIPLDLRYKDSMNTKRESDADQSNSLDGSISANIMQVLNNGNLVVRGEKWISINNGDEFIRVTGIVRSQDIKPDNTIDSTRMANARIQYSGTGTFAEAQKVGWLSQFFMSDWWPF | not soluble
MGSDKIHHHHHHDKDFGGLENIGWNEKPLQITTRILTTKSTNFIQEFKEGSMLGLQITSGTVDDLYNGISTYKNVSVKAYRVNGKIRWQQSPEVILDSNEATIYAYYPYQEDINFNARQIPVKLAPNALETDDYMYGTHAIGQKAVNSTSPLVLLSMNHALSLISFQLNLSKGKTGAFIISSVQVGNKPGGTTLVSEGTLDITTGDIIGSTARSTSASTVLSLTNPVTLINEKYCDPMRLMVIPPSGTIGTGDVETLFTINGETYKFDIPANTQWEKGKKYLYKLSFNGRSLQLRDVSITDWLPGNDEGLIGNIM | not soluble
MGSDKIHHHHHHDKTVKENGRTLHNGIVLPEQWPPSMIDDGVRREMSLPYISNKPTVISVNLGRQLFVDDFLIAETDMERVSHKAMFYENNPVLAPDKEWEYTFERAPYAAPFSDGIWYDESEQKFKMWYLAGAGSMHKHRQSFYTCYAESKDGKHWEKVNMDIVPGTNIVDTCDRDAATVWLDKMCPEPEKRFKLFNVEKHSGGWKIILKYSKDGIHWSEGVAQSGPVGDRTTAFYNPFTQKWAISLRQGSKADGRSRGYLENEDPEMAVSVAHSLAKGIKDKNIVLWFTPSDKELPHPEFPDVRPAIYNFDAMPYESVMLGFYAMWKGPENDLCGKLGIQKRNEIGMGYSRDGFHFYRPSYEPVMGVNETEGAWNWGNMQSVIGVPLIVGDSLYLYSSGRMKNKVMWDGFTSTGLATLRRDGFVSMHTDTEGVLVTEKIKFDGNHFFVNAQAKDLQVEIMDENGNVITGFSREDCKEMNDLNSTKQLVTWKSGKKLAALSGKIVKVKFYVTCGDLYAFWISPWDTGESRGYTGGGGPGLNPCGIDIK | not soluble
MGSDKIHHHHHHENLYFQGMRFLAYFGHLNIDVLISVDSIPREGSVNVKDLRPRFGGTAGNFAIVAQKFRIPFDLYSAVGMKTHREYLAMIESMGINTGHVEKFEDESGPICYIATDGKKQVSFMHQGAMAAWAPQLADEYEYVHFSTGPNYLDMAKSIRSKIIFDPSQEIHKYSKDELKKFHEISYMSIFNDHEYRVFREMTGLSSPKVTTIVTNGERGSSLFMDGKKYDFPAIPSSGDTVGAGDSFRAGLYLALYNRRSIEKGMIYGTIIAHHVIDDGIENFSLNMEDLERETENYRRMFTKRS | soluble
MGSDKIHHHHHHESSKSGYQTTGENNSSDYQGIIEDGEYKTSKSRGVGISQNSDNLLNLKSFEAGLTTISKDHFSTKSYIFQEGQYLNKATIQDWLGRKSSSNPEGLNPSDNGKKEANKRNPIYVQQIEEQDYMKQNNGKLELAGMTIGIGMNQKDYYQKEQYGATYSTTISKEKRIEEGKIAAKKVLARVRQKVGNNVPIVIAMFAQAPNDSLVGGYFYSYTVSKSGTDIGSWTETNIKSYVLPATEDNKLPNDNDSTSFDNFQKEVKNFFPNISNVTGQGQYKDKTLQGLHITITTQFYSETEITSFTQYVAQAAKSYLPSGIPVDIKINGSDGETQSFVSTTGGNGGYYTHVFGSY | not soluble
MGSDKIHHHHHHFEEVNTDPDSPTDVPTTNLLAYSLYYTSYRLYDRWFAMDEPMTFCGYASKMTYIDESRYNFRTGVQDTNWEYLYRILNNLKDIEKRATFNETPNMLNVSKVMQVHLMQVATDRWRDVPYTDAAKMTDGILQPKYDKQEDIYPGLLATLKEAADGFADGGSDDLGEGDLLFGGDIEKWQRYCNSMRLRLAMRISEVSPALAKETVEEVMGNPTKYPIMESNDDNAFFWWIGTDPNYYEPMADGYRTRKTEYCAADVIVDHMNTREDPRRSSYFQPTKESVEAGEPKYVGYTIGAKANAVASKYSIWGARFFTDLAGFSPYMRVAEPWFCVAEASMLGWNTGISAEDAYNKAVTYSMEENSVSAEDIADYLANAGKFTNDKKQIYYEEWVAMFKQGMEGWSLYRRTGVPDNLYPAPGRPANYSNHNVPPFRSPYPDKERNLNNANCAPFDAEVVDNLWGKQMWWDTRTGVH | not soluble
MGSDKIHHHHHHGFESDNANKAGYTPELQEYDLQKYVLNLGVMQQGIYFNYDWGRGTDWTFQTIQNLGHDMFAGYFHDMNNSFNDKNSVYALNDGWTGSAWTYTYGYIMTAAQKSEKINQEQKGLLGVTKILKVELMHRIADTYGPIVYTKFGQEEGDNVDSQEAAYRQFFKDLDEGVKLINEYKKDNAALEPFAAADILMPAGKRTLSQWVKFANSLRLRLAIRVSMSAPDLARAEVAKAMDATAGGVLESADETVAVSTESGYKNPLGTVNEGWGEVFMGATMESVLVGYNDPRLIKYYSKAEGGDIKDEKGNLIIAERNKIAGTYKGVPQGTGVTVKDENRYRLHSKSTITKQTDAILMTAAEVWFLRAEAALRGFTSENVKDCYEKGITVSCQQWGVNVGDYLTSDATPSDYVDAFEAKYDVKALIKVTPKWDGGASPEEQLERILTQKWIACYPEGYEAWTEQRRTGYPQLFKVFVNNSGGAIDTNIRIRRLPYPSDIQKNNPTQYSALKKALGGEDNGGTRLWWDTGRNF | not soluble
MGSDKIHHHHHHGGLGDKSFNDGTWAGIKQAAEELGIEAKVIQSYEQSDYIPNLSKAAEEADLVFAVGFMMTNDLFKVAKQYPDTYFVGIDITPPEGQILPNVLTFTFKEQEAAFLVGYVAAAMTKTGMVGFVGGIPIPPVERFRYGYEAGIKTYSVLHKKNVKILRGYTQDFEDPKKGKDLAMSQFAEGADIVFHASGACGNGVIEAAREKFSALAGSDKLVDLIDYYTTNGKGFFAIGVDMDQDYMAPGAVLTSAMKRVDVASYYGVVWAYEGTFEGGHRVLGISEDAVGISPMKYTKGLVPNRVIAELLYLEKLMKEGTLKVPETQEELDAFEVPQIEFPF | not soluble
MGSDKIHHHHHHGTSGTSKSSKTQLTGQSSDGDYEGVIKSGHYQTSKSRGVTNSQDSGNTYNVKSFENGMLGVSKKVFSTKSYVFQEGQYLSSSTVQNWLDRKTKSNPTGLNPKSNGSTSPTKRNPVYIQALEEQDYMTQKNNKLSLGGVTIGIAVNSVDYYKKTQYGATYETKITKAEGEAYAKKAANTVLKRLRKKSALKNVPIVIAIYRQASNDSLVGGNFIAYSENKGSATTVSKWNALSEKNYVFPIESGSSSPNSNDETSFTNFKSQVENFFPNLSGVTAQAHYSGNTLTGMHVNITTQFYSQTEIISFTQYLQTAAQKYLPSSVPIDITVSSTDSVQSFLSRSSGAKKFTSHVFNSY | not soluble
MGSDKIHHHHHHLAADQDTETQEMLLVMSDLDAQGFDQRRINLTQAELYACIEWLARFHAMFAYEAFPKEDALDDASYDGLWPIGTYWHLATRPDELEVMTDSPLKNATEAIDARLNQARFQTLVHGDAKVANFCFHKEVESLGVNGVAAVDFQYVGAGIGVKDFIYLLGSCLDEAQLVTIYDAACSHYFKSLKQQLSGRWAAEQIEALVAEWSDLLPFAWADFERFLAGWQPQHHKRNGFSQDMTQRVLKALGSVR | not soluble
